The values that follow come from PMC4954977.

The target in experiment [1] is mouse PRYSPRY-domain of TRIM21 (tripartite-motif containing protein 21) (mouse). Put plainly: SPR; TRIM21 PRYSPRY-domain immobilised on a CM5 chip (200 RU); Fc fusions injected; HBS-EP pH 7.4 (0.01 M HEPES, 0.15 M NaCl, 3 mM EDTA, 0.05% Tween 20), 25 °C, 50 μL/min; Biacore 3000; bivalent analyte model (KD1). (In SPR one partner is held on a chip, and binding of the other changes the refractive index at the surface.)

The target of experiment [2] is murine neonatal Fc receptor (FcRn), extracellular domain (murine | not stated) (UniProt Q61559). Put plainly: SPR; FcRn extracellular domain immobilised on a CM5 chip (600 RU); Fc fusions injected; McIlvaine's phosphate-citrate buffer pH 6.0 with 0.05% Tween 20, 25 °C, 50 μL/min; Biacore 3000; bivalent analyte model (KD1).
Chain of UniProt Q61559 (Q61559 whole entry, looked up, the tested form may be a part): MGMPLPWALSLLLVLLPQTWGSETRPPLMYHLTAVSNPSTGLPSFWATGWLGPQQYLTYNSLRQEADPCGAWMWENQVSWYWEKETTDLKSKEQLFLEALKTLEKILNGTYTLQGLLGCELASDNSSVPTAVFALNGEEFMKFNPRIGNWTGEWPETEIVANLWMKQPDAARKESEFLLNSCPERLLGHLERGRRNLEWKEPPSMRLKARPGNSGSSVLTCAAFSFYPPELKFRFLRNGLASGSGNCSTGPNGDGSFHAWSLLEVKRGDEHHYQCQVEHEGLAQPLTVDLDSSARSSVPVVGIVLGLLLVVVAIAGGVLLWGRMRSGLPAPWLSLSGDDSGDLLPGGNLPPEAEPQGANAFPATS

As for “Fc-ARP1 fusion protein (mouse IgG1 Fc fused to the anti-rotavirus VHH ARP1) (Fc fusion)”, the Kd came out at 28 nM in experiment [1] and 760 nM in experiment [2].
